Test [1] addresses T1, recombinant human Trop-2-his protein (ACCESSION NO.: NP_002344.2, AA 1-274) (human, UniProt P09758 27-274).
T1 construct: range 27-274; also called recombinant human Trop-2 protein; recombinant human Trop-2 extracellular domain; not shown: his tag
T1 sequence (looked up): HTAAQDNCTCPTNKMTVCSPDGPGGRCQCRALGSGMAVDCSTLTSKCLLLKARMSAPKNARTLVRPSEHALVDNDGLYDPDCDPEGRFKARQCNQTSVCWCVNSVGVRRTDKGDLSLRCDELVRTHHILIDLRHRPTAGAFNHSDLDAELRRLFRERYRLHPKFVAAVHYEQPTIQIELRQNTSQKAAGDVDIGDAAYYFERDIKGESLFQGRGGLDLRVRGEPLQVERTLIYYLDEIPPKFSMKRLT
Briefly: BLI, antibody on AHC sensor, Trop-2-his 23, 30, 45, 75 nM. As for the experimental part:
Affinities of the antibodies were determined by an assay including capturing Fc fragments of the antibodies with anti-human IgG Fc capture (AHC) biosensors using Octet QKe system instrument from Fortebio.
For the assay, each of the antibodies (h23-12, h4-3, and control antibody Sacituzumab) was diluted to 4 μg/ml in PBS, and was allowed to flow through the surface of an AHC biosensor (Cat.: 18-0015, PALL) for 120 s. Recombinant human Trop-2-his protein (ACCESSION NO.: NP_002344.2, AA 1-274) was used as a mobile phase. The Trop-2-his protein was used in following concentrations which corresponded to different antibodies: in case of h23-12, the Trop-2 was used in concentrations of 23, 30, 45, and 75 nM; in case of h4-3, it was used in concentrations of 23, 30, 45, and 60 nM; and in case of Sacituzumab, it was used in concentrations of 23, 30, 45, and 75 nM. The binding time was 100 s and the dissociation time was 300 s. When the assay was finished, data from which the response values of blank control had been deducted were fitted to a 1:1 Langmuir binding model using software, and then kinetic constants for antigen-antibody binding were calculated.
A general note: BLI is a label-free optical method that tracks binding on a fibre tip over time.

The target of test [2] is T2, recombinant cynomolgus Trop-2-his protein (ACCESSION NO.: UniProtKB-A0A2K5UE71, AA 1-272) (cynomolgus, UniProt A0A2K5UE71 1-272).
T2 construct: The printed range begins at residue 1; not shown: his tag
T2 sequence: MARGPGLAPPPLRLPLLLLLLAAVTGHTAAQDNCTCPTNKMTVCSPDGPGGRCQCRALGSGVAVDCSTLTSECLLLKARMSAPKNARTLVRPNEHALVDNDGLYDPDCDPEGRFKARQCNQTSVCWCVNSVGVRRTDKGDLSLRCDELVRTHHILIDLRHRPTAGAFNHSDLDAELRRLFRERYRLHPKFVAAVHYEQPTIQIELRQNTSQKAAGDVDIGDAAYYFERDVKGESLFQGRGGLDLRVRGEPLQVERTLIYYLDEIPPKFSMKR
Briefly: ELISA, coated cynomolgus Trop-2-his 1 µg/ml. As to the method:
(§1) Washed with PBS 3 times, the plates were blocked with the added 5% BSA PBS at 37° C. for 60 min, and then washed 3 times with PBST. Different concentrations of h23-12 (serial dilutions of 14 concentrations obtained through 3-fold serially diluting a solution with an initial concentration of 10 μg/ml), h4-3 (serial dilutions of 12 concentrations obtained through 3-fold serially diluting a solution with an initial concentration of 3 μg/ml), and Sacituzumab (serial dilutions of 12 concentrations obtained through 3-fold serially diluting a solution with an initial concentration of 3 μg/ml) were added into the plates, with each concentration provided in a parallel well. The plates were incubated at 37° C. for 60 min, and then were washed 4 times with PBST. 1:5000 dilution of H1RP-anti-human Fc (Cat.: 109-035-098, Jackson ImmunoResearch) was added into the plates for incubation at 37° C. for 30 min. Afterwards, the plates were washed with PBST 4 times, and TMB substrate was added for color development at 37° C. for 10 min. Then 2M HCl was added to stop reaction; and absorbances at 450 nm and at 630 nm (as reference wavelength) were read, and A450 nm-630 nm values of the wells in the plates were recorded.
In general terms: ELISA stands for enzyme-linked immunosorbent assay.

Test [3] concerns the target T3, human Trop-2 on the surface of cells (CHO/Trop-2 cells; BxPC-3 cells; NCI-N87 cells) (human, UniProt P09758 27-323).
T3 sequence (looked up): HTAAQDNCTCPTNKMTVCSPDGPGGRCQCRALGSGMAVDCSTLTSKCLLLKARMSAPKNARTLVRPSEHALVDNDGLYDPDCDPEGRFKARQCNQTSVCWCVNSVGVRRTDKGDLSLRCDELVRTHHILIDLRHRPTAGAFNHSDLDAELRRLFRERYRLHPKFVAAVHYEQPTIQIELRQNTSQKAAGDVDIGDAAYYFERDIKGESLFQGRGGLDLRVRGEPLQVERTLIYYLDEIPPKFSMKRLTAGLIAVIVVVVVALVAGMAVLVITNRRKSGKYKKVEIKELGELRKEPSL
Briefly: cell-based or functional assay.

In test [4] the target is T1, recombinant human Trop-2-his protein …. Briefly: ELISA, coated human Trop-2-his 1 µg/ml. As for the experimental part: as §1
The target in test [5] is T3, human Trop-2 on the surface of cells …. Briefly: cell-based or functional assay. This is another data set of the same source.
Test [6] concerns the target T4, recombinant mouse Trop-2-his protein (Cat.: 50922-M08H, Beijing Yiqiao Shenzhou Science and Technology Co., … (mouse, UniProt Q8BGV3 25-270)).
T4 construct: Bought protein; not shown: his tag
T4 sequence (looked up): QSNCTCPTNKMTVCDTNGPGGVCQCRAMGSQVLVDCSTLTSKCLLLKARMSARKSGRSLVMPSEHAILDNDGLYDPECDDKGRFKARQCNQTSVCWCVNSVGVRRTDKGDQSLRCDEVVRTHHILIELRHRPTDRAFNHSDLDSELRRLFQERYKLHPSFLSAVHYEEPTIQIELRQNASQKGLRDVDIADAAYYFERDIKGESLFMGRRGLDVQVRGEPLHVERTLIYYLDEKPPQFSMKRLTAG
Briefly: ELISA, coated mouse Trop-2-his 1 µg/ml. As to the method:
as §1

The source of these data is patent US20240092930A1 (MABWELL SHANGHAI BIOSCIENCE, published 2024).

B1: Sacituzumab (antibody, human IgG1, kappa, V domains shown)
VH: QVQLQQSGSELKKPGASVKVSCKASGYTFTNYGMNWVKQAPGQGLKWMGWINTYTGEPTYTDDFKGRFAFSLDTSVSTAYLQISSLKADDTAVYFCARGGFGSSYWYFDVWGQGSLVTVSS
VL: DIQLTQSPSSLSASVGDRVSITCKASQDVSIAVAWYQQKPGKAPKLLIYSASYRYTGVPDRFSGSGSGTDFTLTISSLQPEDFAVYYCQQHYITPLTFGAGTKVEIKR
notes: expressed in HEK293; also called control antibody Sacituzumab; Saituzumab
By Kd is commonly meant the constant that tells how readily two partners part at equilibrium. For orientation: koff means the first-order rate constant of dissociation. One may read the kon as the second-order rate constant of association. The EC50 is the concentration that produces a half-maximal response. As to B1, in test [1], the Kd was 0.941 nM, the koff came out at 0.000194 s⁻¹ and the kon was 208000 M⁻¹ s⁻¹. In addition, in test [2], the concentration giving a half-maximal response (EC50) is 0.0726 nM. Also, the “Internalization percentage, 1 h, BXPC-3 cells, FACS” value in test [3] is 37.4%. Also, the EC50 in test [4] came to 0.0703 nM. In addition, in test [5], the “Internalization percentage, 1 h, NCI-N87 cells, FACS” value was 49.3%. In addition, the binding result in test [6] was “no binding (tested: up to 3 µg/ml)”.

B2: h23-12-25 (antibody, human IgG1, kappa, V domains shown)
VH: QVQLVQSGAEVKKPGASVKVSCKASGYTFTSYWMHWVRQAPGQGLEWMGEITPSDNYGSYNQKFKGRVTITRDTSTSTAYMELSSLRSEDTAVYYCARGHGNYVSFDYWGQGTLVTVSS
VL: DIQMTQSPSSLSASVGDRVTITCRASQDISNYLNWYQQKPGKAPKLLIYYTSRLESGVPSRFSGSGSGTDFTLTISSLQPEDFATYFCQQGYTLPPYTFGQGTKLEIKR
notes: also called h32-12
B2: in test [1], the Kd turned out to be 0.64 nM, the koff is 0.000114 s⁻¹ and the kon is 178000 M⁻¹ s⁻¹. For the same molecule, in test [2], the EC50 was found to be 0.124 nM. Besides, the “Internalization percentage, 1 h, BXPC-3 cells, FACS” value in test [3] came out at 32.4%. Moreover, the EC50 in test [4] is 0.0473 nM. Besides, the “Internalization percentage, 1 h, NCI-N87 cells, FACS” value in test [5] was found to be 54%. Besides, the binding result in test [6] is listed as “no binding (tested: up to 10 µg/ml)”.
